T1: CD97 isoform 1 (Homo sapiens, UniProt P48960)
T1 construct: The genes encoding the ectodomains of CD97 (isoforms 1 and 2) and EMR2 (isoforms 1 and 4); inferred from IMAC purification; inferred from BirA biotinylation; made in house; host or cells: expi293F
T1 sequence (P48960 21-552 limits assumed): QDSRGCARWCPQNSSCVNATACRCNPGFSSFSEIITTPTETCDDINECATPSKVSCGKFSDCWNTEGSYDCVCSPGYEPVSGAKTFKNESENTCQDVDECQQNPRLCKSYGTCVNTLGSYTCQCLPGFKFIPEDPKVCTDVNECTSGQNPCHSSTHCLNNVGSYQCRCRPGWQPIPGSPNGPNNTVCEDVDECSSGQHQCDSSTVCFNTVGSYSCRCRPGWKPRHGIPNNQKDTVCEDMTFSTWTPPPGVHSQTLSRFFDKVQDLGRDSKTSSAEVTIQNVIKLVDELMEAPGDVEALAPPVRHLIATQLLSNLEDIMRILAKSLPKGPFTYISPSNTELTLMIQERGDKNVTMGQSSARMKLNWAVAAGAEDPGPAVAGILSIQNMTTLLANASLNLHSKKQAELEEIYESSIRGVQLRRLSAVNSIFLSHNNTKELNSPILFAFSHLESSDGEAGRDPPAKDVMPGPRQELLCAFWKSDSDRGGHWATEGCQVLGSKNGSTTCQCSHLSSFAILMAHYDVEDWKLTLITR

T2: EMR2 (EGF-like module-containing mucin-like hormone receptor-like 2) isoform 4 ectodomain, purified and … (UniProt Q9UHX3-4 24-447, limits assumed, biotinylated in vitro using the BirA enzyme)
T2 construct: extracellular domain; Close homolog of CD97 used as specificity control
T2 sequence (looked up): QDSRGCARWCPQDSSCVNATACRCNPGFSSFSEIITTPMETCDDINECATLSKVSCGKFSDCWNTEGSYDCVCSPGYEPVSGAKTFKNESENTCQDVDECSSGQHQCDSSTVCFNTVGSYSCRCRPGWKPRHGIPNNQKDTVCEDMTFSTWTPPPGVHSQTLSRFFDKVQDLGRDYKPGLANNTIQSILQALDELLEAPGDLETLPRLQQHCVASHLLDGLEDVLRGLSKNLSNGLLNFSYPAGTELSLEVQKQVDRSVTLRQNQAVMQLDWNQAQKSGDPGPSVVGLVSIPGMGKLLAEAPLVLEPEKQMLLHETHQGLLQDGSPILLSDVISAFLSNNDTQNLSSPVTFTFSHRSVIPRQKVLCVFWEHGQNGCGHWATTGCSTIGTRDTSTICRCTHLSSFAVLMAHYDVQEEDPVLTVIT

T3: CD97 (ADGRE5) isoform 1 ectodomain, purified and biotinylated (human, UniProt P48960 21-552, limits assumed, biotinylated in vitro using the BirA enzyme)
T3 construct: the whole entry for isoform 1 is named here; also called CD97 isoform 1; Biotinylated CD97 isoform 1
T3 sequence: T1 sequence (P48960 21-552 limits assumed)

T4: CD97 (ADGRE5) isoform 2 ectodomain, purified and biotinylated (human, UniProt P48960 21-552, biotinylated in vitro using the BirA enzyme)
T4 construct: the whole entry for isoform 2 is named here; also called CD97 isoform 2
T4 sequence: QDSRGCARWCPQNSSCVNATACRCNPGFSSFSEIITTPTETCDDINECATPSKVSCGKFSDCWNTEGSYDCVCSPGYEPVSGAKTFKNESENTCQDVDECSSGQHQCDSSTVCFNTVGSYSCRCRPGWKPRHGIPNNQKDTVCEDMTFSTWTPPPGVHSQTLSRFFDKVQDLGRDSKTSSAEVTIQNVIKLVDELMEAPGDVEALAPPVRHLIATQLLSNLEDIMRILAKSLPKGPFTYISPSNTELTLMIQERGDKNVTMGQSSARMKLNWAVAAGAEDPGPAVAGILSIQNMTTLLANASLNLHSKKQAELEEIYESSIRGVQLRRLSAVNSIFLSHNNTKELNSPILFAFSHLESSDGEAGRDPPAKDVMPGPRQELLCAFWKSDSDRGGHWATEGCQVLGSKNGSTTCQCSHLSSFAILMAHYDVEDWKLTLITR

B1: C27: anti-CD97 antibody clone, VL SEQ ID NO: 21, VH SEQ ID NO: 46 (antibody, V domains shown)
VH: EVQLVESGGGLVQPGGSLRLSCAASGFTLSSSSIHWVRQAPGKGLEWVASIYSYYGSTYYADSVKGRFTISADTSKNTAYLQMNSLRAEDTAVYYCARYRGNMYYWESWYGSYWALDYWGQGTLVTVSS
VL: DIQMTQSPSSLSASVGDRVTITCRASQSVSSAVAWYQQKPGKAPKLLIYSASSLYSGVPSRFSGSRSGTDFTLTISSLQPEDFATYYCQQSSSSLITFGQGTKVEIKRTV
B2: A8 Y100fHA: A8 mutant, VL SEQ ID NO: 9, VH SEQ ID NO: 111 (antibody, V domains shown)
VH: EVQLVESGGGLVQPGGSLRLSCAASGFTISSYSIHWVRQAPGKGLEWVASISPYYGSTSYADSVKGRFTISADTSKNTAYLQMNSLRAEDTAVYYCARSWYYYEQNPYWAQKEEQALDYWGQGTLVTVSS
VL: B1 VL with S92V, S93Y, L95P, I96V
B3: A8 W100eHA: A8 mutant, VL SEQ ID NO: 9, VH SEQ ID NO: 110 (antibody, V domains shown)
VH: B2 VH with W109A, A110Y
VL: B1 VL with S92V, S93Y, L95P, I96V
B4: A8 N100bHE: A8 mutant, VL SEQ ID NO: 9, VH SEQ ID NO: 109 (antibody, V domains shown)
VH: B2 VH with N106E, A110Y
VL: B1 VL with S92V, S93Y, L95P, I96V
B5: Fab 2X10 (Fab, V domains shown)
VH: EVQLVESGGGLVQPGGSLRLSCAASGFTFSSSSIHWVRQAPGKGLEWVASISSSSGSTSYADSVKGRFTISADTSKNTAYLQMNSLRAEDTAVYYCARSYWDMYIYWYYYVKQSRGMDYWGQGTLVTVSS
VL: DIQMTQSPSSLSASVGDRVTITCRASQSVSSAVAWYQQKPGKAPKLLIYSASSLYSGVPSRFSGSRSGTDFTLTISSLQPEDFATYYCQQSSSSLITFGQGTKVEIKR
notes: second discovery campaign; biotinylated Fab in the bead assay; also called Antibody Clone 2X10
B6: Fab 2Z3 (Fab, V domains shown)
VH: EVQLVESGGGLVQPGGSLRLSCAASGFTFSSSSIHWVRQAPGKGLEWVASISSSSGSTSYADSVKGRFTISADTSKNTAYLQMNSLRAEDTAVYYCARVLLGKFWYYNYYEYSAMDYWGQGTLVTVSS
VL: B5 VL
notes: second discovery campaign; biotinylated Fab in the bead assay; also called Antibody Clone 2Z3
B7: Fab 2A5 (Fab, V domains shown)
VH: EVQLVESGGGLVQPGGSLRLSCAASGFTFSSSSIHWVRQAPGKGLEWVASISSSYGSTSYADSVKGRFTISADTSKNTAYLQMNSLRAEDTAVYYCARGWAYSYWYYSHYYEYEVALDYWGQGTLVTVSS
VL: DIQMTQSPSSLSASVGDRVTITCRASQSVSSAVAWYQQKPGKAPKLLIYSASSLYSGVPSRFSGSRSGTDFTLTISSLQPEDFATYYCQQSKFSSPVTFGQGTKVEIKR
notes: second discovery campaign; biotinylated Fab in the bead assay; also called Antibody Clone 2A5
B8: Fab 2X12 (Fab, V domains shown)
VH: EVQLVESGGGLVQPGGSLRLSCAASGFTISSSSIHWVRQAPGKGLEWVASISSSSSYTSYADSVKGRFTISADTSKNTAYLQMNSLRAEDTAVYYCARMDISYYYYEWGFESAYYGMDYWGQGTLVTVSS
VL: B7 VL with S91W, K92W, F93G, S94P, S95E, P96L
notes: second discovery campaign; biotinylated Fab in the bead assay; also called Antibody Clone 2X12
B9: Fab D9 (Fab, V domains shown)
VH: EVQLVESGGGLVQPGGSLRLSCAASGFTVSSSSIHWVRQAPGKGLEWVASISSYYGYTSYADSVKGRFTISADTSKNTAYLQMNSLRAEDTAVYYCARYPMFSYYYWYYGMDYWGQGTLVTVSS
VL: B5 VL with S93G, S94Y, L95P, I96V
notes: first discovery campaign; also called Antibody Clone D9
B10: Fab D25 (Fab, V domains shown)
VH: EVQLVESGGGLVQPGGSLRLSCAASGFTFSSSSIHWVRQAPGKGLEWVASISPYYGSTSYADSVKGRFTISADTSKNTAYLQMNSLRAEDTAVYYCARKLEWGMFFWSPYFRALDYWGQGTLVTVSS
VL: B5 VL
notes: first discovery campaign; also called Antibody Clone D25
B11: Fab D12 (Fab, V domains shown)
VH: EVQLVESGGGLVQPGGSLRLSCAASGFTFSSSSIHWVRQAPGKGLEWVASISSSSGSTSYADSVKGRFTISADTSKNTAYLQMNSLRAEDTAVYYCARIRHYHWYEIPYWDWAIDYWGQGTLVTVSS
VL: B5 VL
notes: first discovery campaign; also called Antibody Clone D12

Residue numbers refer to the chain shown, from its start.

The target in one experiment is T1, CD97 isoform 1. Description: Bead-based binding assay of Fab clones. The settings on record: Fab clones of the first antibody discovery campaign, purified biotinylated antigen on beads. The method, then: Binding titration of the Fab clones was performed by a bead binding assay, as described previously (7,8). Briefly, biotinylated antigens were immobilized on Dynabeads M-280 streptavidin (Thermo Fisher). The biotinylated Fab clones were titrated into a solution containing the antigen-coated beads. After incubation, the beads were washed three times and incubated with anti-human F(ab′)2-Alexa Fluor 647 (Jackson ImmunoResearch). The beads were further washed three times and analyzed on a HyperCyt (Intellicyt).
The genes encoding the ectodomains of CD97 (isoforms 1 and 2) and EMR2 (isoforms 1 and 4) (FIG. 1) were synthesized (Integrated DNA Technologies) and cloned into the mammalian expression vector pBCAG. The expi293F cells (Thermo Fisher) were transfected with the vectors using the ExpiFectamine 293 transfection kit (Thermo Fisher) according to the manufacturer's protocol. The cells were incubated at 37° C. with 8% CO2. The proteins were purified from the cell culture supernatant by immobilized metal affinity chromatography (IMAC). The purified proteins were biotinylated in vitro using the BirA enzyme in the presence of 0.5 mM Biotin and 10 mM ATP. After the removal of the BirA enzyme by IMAC, the proteins were further purified by size exclusion chromatography using a Superdex 200 10/300 Increase (Cytiva). The purity of the proteins was confirmed by SDS-PAGE.
Consider B1, for which the “binding to CD97 isoform 1” value is on record as “bound only to CD97 isoform 1”.

The same experiment, now with this note: Fab format, compared with wild type A8.
B2: the “binding of A8 CDRH3 mutants to CD97 isoform 1” value (“binding of A8 CDRH3 mutants” below) was “substantially reduced or abolished binding to CD97”.

Regarding B3, the “binding of A8 CDRH3 mutants” value is reported as “substantially reduced or abolished binding to CD97”.

Regarding B4, the “binding of A8 CDRH3 mutants” value is recorded as “substantially reduced or abolished binding to CD97”.

The target of a further experiment is T2, EMR2 (EGF-like module-containing …). Description: bead-based binding titration (biotinylated antigen on streptavidin beads, flow cytometry).
Settings: not given
Background: In flow cytometry, cells or beads pass a laser one at a time.
As for B5, the binding result is given as “no binding (tested: 100 nM)”.

On to B6, for which the binding result is listed as “no binding (tested: 50 nM)”.

In the case of B7, the binding result is reported as “no binding (tested: 50 nM)”.

As to B8, the binding result is listed as “no binding (tested: 100 nM)”.

In a further experiment the target is T3, CD97 (ADGRE5) isoform 1 ectodomain, …. Description: bead-based binding titration (biotinylated antigen on streptavidin beads, flow cytometry), 1:1 fit.
Settings: not given
In general, Kd refers to the concentration at which binding is half-saturated. For B5, the Kd came out at 54 nM.

In turn, B6 came in with a Kd of 7.1 nM.

Regarding B7, the Kd was 2.6 nM.

The molecule B8 came in with a Kd of 22 nM.

A further experiment deals with T4, CD97 (ADGRE5) isoform 2 ectodomain, …. The description is as above.
Settings: not given
Consider B5, for which the Kd is 41 nM.

Turning to B6, binding was put at a Kd of 7.1 nM.

The molecule B7 yielded a Kd of 2 nM.

As to B8, binding was characterised by a dissociation constant (Kd) of 29 nM.

The target of the next experiment is T3, CD97 (ADGRE5) isoform 1 ectodomain, …. Description: bead-based binding titration (biotinylated antigen on streptavidin beads, flow cytometry), 1:1 fit [Continued].
Settings: not given
B9: the equilibrium dissociation constant (Kd) stood at 3.4 nM.

In turn, B10 had a Kd of 14 nM.

B11: the Kd is 3 nM.

In another experiment the target is T4, CD97 (ADGRE5) isoform 2 ectodomain, …. The description is as above.
Settings: not given
B9: the Kd amounted to 3.6 nM.

B10 registered a Kd of 14 nM.

As for B11, the affinity, expressed as Kd, was 3.2 nM.

Source of the values: patent publication US20250051474A1, “ANTI-CD97 ANTIBODIES AND ANTIBODY-DRUG CONJUGATES” (New York University, priority 2023, published 2025).
